B1: MBP-fused Apc1-loop^500 WT fragment [Xenopus tropicalis] / Plx1 (polo-like kinase homolog in Xenopus laevis), endogenous [Xenopus laevis (endogenous in egg extracts)] (parent)
chain 1: MAQVAGKKLTVAPEAAKPPGIPGSSSAVKEIPEILVDPRTRRRYLRGRFLGKGGFAKCYEITDLESREVFAGKIVPKTMLLKPHQKDKMTMEIAIQRSLDHRHVVGFHGFFEDNDFVYVVLELCRRRSLLELHKRRKAVTEPEARYYLKQTISGCQYLHSNRVIHRDLKLGNLFLNDEMEVKIGDFGLATKVEYDGERKKTLCGTPNYIAPEVLGKKGHSFEVDIWSIGCIMYTLLVGKPPFETSCLKETYMRIKKNEYSIPKHINPVAAALIQKMLRSDPTSRPTIDDLLNDEFFTSGYIPSRLPTTCLTVPPRFSIAPSTIDQSLRKPLTAINKGQDSPLVEKQVAPAKEEEMQQPEFTEPADCYLSEMLQQLTCLNAVKPSERALIRQEEAEDPASIPIFWISKWVDYSDKYGLGYQLCDNSVGVLFNDSTRLIMYNDGDSLQYIERNNTESYLNVRSYPTTLTKKITLLKYFRNYMSEHLLKAGANTTPREGDELARLPFLRTWFRTRSAIILHLSNGTVQINFFQDHTKIILCPLMAAVSYIDEKREFRTYKLSLIQEFGCCKELASRLRYARTMVEKLQSSKSAVAHVKASA
chain 2: GLAAPSLGMSNPMPRPSTPLESISTPAKPLNKHLAPMDEAGMLSPVPELRDSTRLHESTYLDDCTFHQFG
B2: MBP-fused Apc1-loop^500 WT fragment [Xenopus tropicalis] / Plx1-PBD WT (polo-box domain of Plx1) [Xenopus laevis] (parent)
chain 1: EPADCYLSEMLQQLTCLNAVKPSERALIRQEEAEDPASIPIFWISKWVDYSDKYGLGYQLCDNSVGVLFNDSTRLIMYNDGDSLQYIERNNTESYLNVRSYPTTLTKKITLLKYFRNYMSEHLLKAGANTTPREGDELARLPFLRTWFRTRSAIILHLSNGTVQINFFQDHTKIILCPLMAAVSYIDEKREFRTYKLSLIQEFGCCKELASRLRYARTMVEKLQSSKSAVAHVKASA
chain 2: B1 chain 2

Variants of: B1
Experiment: MBP pull-down (amylose beads) from Xenopus egg anaphase extracts, immunoblot with Plx1 antibody, quantified
Details: anaphase extracts supplemented with non-degradable cyclin B, 23°C, 1 h, parent: 1, read off a plot

Variant | ratio to parent
chain 2 GLAAPSLGMSNPMPRPSAPLESISTPAKPLNKHLAPMDEAGMLSPVPELRDSTRLHESTYLDDCTFHQFG [chain 2 T18A] | 0.92 A.U.
chain 2 GLAAPSLGMSNPMPRPSTPLESISAPAKPLNKHLAPMDEAGMLSPVPELRDSTRLHESTYLDDCTFHQFG [chain 2 T25A] | 0.61 A.U.
chain 2 GLAAPSLGMSNPMPRPSAPLESISAPAKPLNKHLAPMDEAGMLSPVPELRDSTRLHESTYLDDCTFHQFG [chain 2 T18A T25A] | 0.51 A.U.
chain 2 GLAAPSLGMSNPMPRPSTPLESISTPAKPLNKHLAPMDEAGMLAPVPELRDSTRLHESTYLDDCTFHQFG [chain 2 S44A] | 0.5 A.U.

Variants of: B2
Experiment: MBP pull-down (amylose beads), SDS-PAGE with Coomassie brilliant blue staining, quantified
Details: anaphase extracts supplemented with non-degradable cyclin B, 23°C, 1 h, then 10 µg WT Plx1-PBD for 15 min, parent: 1, read off a plot

Variant | ratio to parent
chain 2 GLAAPSLGMSNPMPRPSAPLESISAPAKPLNKHLAPMDEAGMLSPVPELRDSTRLHESTYLDDCTFHQFG [chain 2 T18A T25A] | 0.03

Variants of: B2
Experiment: MBP pull-down (amylose beads), SDS-PAGE with Coomassie brilliant blue staining, quantified as bound Plx1-PBD per Apc1-loop500
Details: with MBP-fused Apc1-loop^500 WT fragment [Xenopus tropicalis]; input 10 µg Plx1-PBD, 15 min; Apc1-loop500 pre-incubated in anaphase extracts with non-degradable cyclin B, 23°C, 1 h; parent: 1.1; read off a plot

Variant | response
chain 1 EPADCYLSEMLQQLTCLNAVKPSERALIRQEEAEDPASIPIFWISKWVDYSDKYGLGYQLCDNSVGVLFNDSTRLIMYNDGDSLQYIERNNTESYLNVRSYPTTLTKKITLLKYFRNYMSEHLLKAGANTTPREGDELARLPFLRTWFRTRSAIILHLSNGTVQINFFQDATMIILCPLMAAVSYIDEKREFRTYKLSLIQEFGCCKELASRLRYARTMVEKLQSSKSAVAHVKASA [chain 1 H171A K173M] | 0.07 A.U.

Same assay, conditions: with MBP-fused Apc1-loop^500 WT fragment [Xenopus tropicalis]; input 15 µg Plx1-PBD, 15 min; Apc1-loop500 pre-incubated in anaphase extracts with non-degradable cyclin B, 23°C, 1 h; parent: 1.4; read off a plot

Variant | response
chain 1 EPADCYLSEMLQQLTCLNAVKPSERALIRQEEAEDPASIPIFWISKWVDYSDKYGLGYQLCDNSVGVLFNDSTRLIMYNDGDSLQYIERNNTESYLNVRSYPTTLTKKITLLKYFRNYMSEHLLKAGANTTPREGDELARLPFLRTWFRTRSAIILHLSNGTVQINFFQDATMIILCPLMAAVSYIDEKREFRTYKLSLIQEFGCCKELASRLRYARTMVEKLQSSKSAVAHVKASA [chain 1 H171A K173M] | 0.09 A.U.

— paper PMC8441438, “Dynamic regulation of mitotic ubiquitin ligase APC/C by coordinated Plx1 kinase and PP2A phosphatase action on a flexible Apc1 loop” (The EMBO Journal, 2021)
